The assay deals with Mouse monoclonal antibody 1F9 (isotype IgG2b with a Kappa light chain). The assay is described as follows: phage ELISA. As to conditions: immobilized 1F9; phage dilution 5 (first point of the series); duplicate; parent: est. 0.88; read off a plot. (An ELISA detects its analyte on a solid surface through an enzyme-linked reagent.)
With “3D7 AMA1 domain I expressed on M13 phage D204N”, the response (absorbance 450 nm) was determined as 0.06.

With “3D7 AMA1 domain I expressed on M13 phage F201L”, the response (absorbance 450 nm) turned out to be 0.53. For the substance “3D7 AMA1 domain I expressed on M13 phage F201V”, the response (absorbance 450 nm) was determined as 0.06. The figure for “3D7 AMA1 domain I expressed on M13 phage H200L” is 0.17; for “3D7 AMA1 domain I expressed on M13 phage N228K” it is 0.38.

These data come from paper PMC2323298.
